# B1: LINE1-mini (parent)
# chain: GGCAGAGCUCAACACAGCGUGGCAAAGUGGCUGUGGCUAGACUGCC
# Variants of: B1
# Experiment: self-cleavage, relative activity (ratio to wild type); higher = more cleavage; in vitro, sequencing; the parent is a self-cleaving ribozyme
row,Variant,self-cleavage
1,C10A U43G,0
2,U9C G22C,0.03
3,U9C U28A,0.03
4,C8G G36C,0.08
5,G35U U43A,0.15
6,A12U G35A,0.19
7,C37U C46G,0.04
8,A14C G33A,0.06
9,A24U A41U,0.61
10,C10G A26U,0.15
11,G19C C37A,0.04
12,C3A G44A,0.91
13,A25G C46U,0.4
14,C23G U34C,0.32
15,C8A A12G,0.11
16,C37A U38C,0.03
17,C8U U43A,0.08
18,C3U U20G,0.28
19,U20G A24U,0.54
20,C31U G35A,0.03
21,G5U A39G,0.04
22,C15A U38C,0.07
23,U34A A39G,0.05
24,U38A U43A,0.03

row,Variant,self-cleavage
1,G5A C37G,0.05
2,U32G U43C,0.07
3,U20G A39C,0.13
4,G5A A12C,0.04
5,G29C G30U,0.67
6,A6U A11G,0.04
7,A12C U32C,0.05
8,A4C G33C,0.04
9,A11C C15G,0.02
10,U9G C31U,0.03
11,G1A A12U,0.19
12,A4G U43C,1.34
13,G35C U38G,0.02
14,C3A U20A,0.38
15,C10G A14C,0.04
16,U43C C45G,0.1
17,A11G G30A,0.04
18,G21A C23U,1.02
19,G27C C31G,0.05
20,G5C C46A,0.09
21,G2A G44U,0.75
22,G2U G40A,0.03
23,C3A A16G,0.22
24,C18A G35A,0.05

row,Variant,self-cleavage
1,C15U U34A,0.08
2,A11C G30U,0.05
3,G5U U38C,0.05
4,G17U U28G,0.1
5,G17U U20C,0.64
6,G30A C37G,0.06
7,U28C G44A,0.67
8,G21U A24C,0.51
9,A6C G44A,0.22
10,A14U C37U,0.03
11,A4C G19A,0.28
12,C3U U32A,0.07
13,C37U U43A,0.11
14,G17A U28G,0.1
15,C31G U32G,0.08
16,G17A C45G,0.04
17,A14U G36C,0.08
18,A12U C18A,0.18
19,G22A A26U,0.76
20,U34C U43A,0.11
21,U34A U43G,0.04
22,U28G C46U,0.36
23,G5A C23U,0.14
24,G27C U32G,0.08

row,Variant,self-cleavage
1,U38G A41U,0.04
2,A25C G36A,0.21
3,G7C G40U,0.26
4,G19C C45A,0.47
5,C13U G27C,0.06
6,U28C G30U,0.7
7,A12U C37G,0.06
8,G1C C46U,0.18
9,G29A C42A,0.16
10,G1U G7C,0.12
11,C8A A14U,0.25
12,A11C C23U,0.05
13,G22C C42G,0.03
14,G21U A41U,0.9
15,C3G G30U,0.71
16,G22C A26C,2.46
17,A4G U34A,0.07
18,A25C A41U,0.52
19,A4G U20A,0.19
20,G30A A39C,0.4
21,U32G U34A,0.04
22,C10U G35U,0.05
23,A24G G29U,1.07
24,A4U G5A,0.1

row,Variant,self-cleavage
1,G36A,0.2
2,A25C C46U,0.56
3,A11C C31A,0.02
4,G2U A6C,0.04
5,G17U U20A,0.16
6,G17A A24G,0.18
7,G7C U20C,0.15
8,C3A A12U,0.57
9,G36U A39G,0.05
10,C13U G40U,0.09
11,A11U C18G,0.04
12,A24C G27U,0.55
13,A39U C42A,0.1
14,G1C A24U,0.2
15,U9G C23U,0.07
16,G19U U32C,0.4
17,A6U C10G,0.06
18,G29A U34C,0.08
19,A14C G30A,0.21
20,A24C G27A,0.77
21,A12G G40U,0.06
22,G5C G19C,0.08
23,G5U A26C,0.11
24,G7A C45U,0.21

row,Variant,self-cleavage
1,G7C U9G,0.28
2,A6C G35C,0.05
3,U20G G36C,0.09
4,G19A G44A,0.75
5,A25C A39U,0.52
6,G7A C23A,0.15
7,G19C G22C,0.32
8,A16G G35U,0.11
9,G2U A6U,0.16
10,G7A U9C,0.04
11,G29U C37A,0.13
12,U34A G35C,0.13
13,G1C U32A,0.02
14,U20C G36U,0.15
15,A4C U34C,0.15
16,A12U A39C,0.11
17,U28A G35C,0.08
18,G22A C45A,0.67
19,A25C G44A,0.42
20,A12G G40A,0.06
21,A16U U43G,0.02
22,A12C G44U,0.03
23,G7A C46A,0.23
24,C8U U34G,0.22

row,Variant,self-cleavage
1,G1C A39U,0.06
2,A11C A25U,0.09
3,G5U G35U,0.15
4,G29C G35U,0.06
5,G40A G44A,0.19
6,G17U G35A,0.07
7,A4U C8A,0.23
8,C18U G35C,0.03
9,C13U C23A,0.26
10,G7A A16U,0.32
11,G7A C8U,0.43
12,A24U C31A,0.07
13,G22U A26G,1.68
14,C8U A41G,0.2
15,C18G G35A,0.07
16,A12U A16U,0.07
17,U9G C45G,0.21
18,G19A A41U,0.77
19,G30C G40C,0.18
20,G5C C42A,0.09
21,U9G A25G,0.06
22,C31A G33U,0.08
23,U20A C31A,0.09

# — the RNAGym collection of RNA variant scans (doi:10.7554/elife.90254)
